# Results as given in PMC5767221.
# Target: mGlu5-NanoLuc (UniProt P31424)
# Test: FRET or BRET; intermolecular BRET imaging in live hippocampal neurons expressing mGlu5-NanoLuc (donor) and Venus-Homer (acceptor); recorded for 30 min in soma and dendritic spines; control KCl 3 mM, and before and during depolarization with KCl 55 mM
# UniProt P31424, sequence (P31424 21-1203): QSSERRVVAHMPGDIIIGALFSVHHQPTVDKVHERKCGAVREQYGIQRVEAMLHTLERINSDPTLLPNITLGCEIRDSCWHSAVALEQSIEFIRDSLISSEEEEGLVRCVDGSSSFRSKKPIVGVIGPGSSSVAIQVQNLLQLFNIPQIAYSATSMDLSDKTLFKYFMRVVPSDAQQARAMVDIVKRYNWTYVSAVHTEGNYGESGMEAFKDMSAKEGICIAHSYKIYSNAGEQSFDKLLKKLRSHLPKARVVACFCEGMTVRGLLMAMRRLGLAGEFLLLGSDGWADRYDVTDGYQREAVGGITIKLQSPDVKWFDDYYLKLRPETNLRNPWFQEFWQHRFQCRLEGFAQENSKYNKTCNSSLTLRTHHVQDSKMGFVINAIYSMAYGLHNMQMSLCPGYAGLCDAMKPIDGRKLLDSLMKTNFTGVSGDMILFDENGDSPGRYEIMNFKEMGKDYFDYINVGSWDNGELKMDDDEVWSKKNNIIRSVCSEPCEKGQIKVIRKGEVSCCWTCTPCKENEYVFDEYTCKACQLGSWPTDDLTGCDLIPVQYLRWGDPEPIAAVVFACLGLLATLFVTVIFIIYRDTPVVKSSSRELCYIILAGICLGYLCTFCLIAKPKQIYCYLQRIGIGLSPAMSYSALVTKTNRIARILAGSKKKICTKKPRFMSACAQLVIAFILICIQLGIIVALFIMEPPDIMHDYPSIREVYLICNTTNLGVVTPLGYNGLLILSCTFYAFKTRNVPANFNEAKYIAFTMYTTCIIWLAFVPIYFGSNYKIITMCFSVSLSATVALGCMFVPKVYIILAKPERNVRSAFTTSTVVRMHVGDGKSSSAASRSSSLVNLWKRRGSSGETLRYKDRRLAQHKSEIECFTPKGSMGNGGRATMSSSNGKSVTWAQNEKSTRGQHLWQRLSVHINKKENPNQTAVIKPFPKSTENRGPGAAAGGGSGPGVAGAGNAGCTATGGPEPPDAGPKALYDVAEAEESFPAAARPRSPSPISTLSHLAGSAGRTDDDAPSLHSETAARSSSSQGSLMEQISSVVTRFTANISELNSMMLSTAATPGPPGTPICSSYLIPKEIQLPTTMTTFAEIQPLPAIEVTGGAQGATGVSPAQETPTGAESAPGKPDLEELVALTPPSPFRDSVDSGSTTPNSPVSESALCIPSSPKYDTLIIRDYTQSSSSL
substance,measurement,value
Venus-Homer (from UniProt Q9Z214 1-366) (natural protein),drop of BRET signal with KCl 55 mM against before depolarization (soma),15%
same,drop of BRET signal with KCl 55 mM against before depolarization (spines),16%
